The results in this text go back to the Immune Epitope Database (IEDB).

Some results are limits rather than exact numbers.

The target in assay [1] is HLA-A*03:01. As to the kind of experiment: IEDB peptide-MHC binding, purified MHC/direct/fluorescence; filed as Kd, often an IC50 or EC50 that approximates it; ≥ and ≤ were set here for values at or beyond the usual limits of such assays. The settings on record: source organism: Coxiella burnetii Q321.
For assay [2], the target named is HLA-A*26:01. The description is as above. The settings on record: source organism: Coxiella burnetii Q321.
Assay [3] deals with HLA-A*29:02. The description is as above. To be noted: source organism: Coxiella burnetii Q321.
Assay [4] deals with HLA-A*69:01. The description is as above. To be noted: source organism: Coxiella burnetii Q321.
Assay [5] addresses HLA-B*18:01. Described as above. To be noted: source organism: Coxiella burnetii Q321.
The target in assay [6] is HLA-B*57:01. The description is as above. To be noted: source organism: Coxiella burnetii Q321.
The target of assay [7] is HLA-C*07:02. The description is as above. To be noted: source organism: Coxiella burnetii RSA 493.
The target in assay [8] is HLA-B*15:42. As to the kind of experiment: IEDB peptide-MHC binding, purified MHC/competitive/fluorescence; filed as Kd, often an IC50 or EC50 that approximates it; ≥ and ≤ were set here for values at or beyond the usual limits of such assays.
Assay [9] addresses HLA-B*27:20. The assay is described as above.
The target of assay [10] is HLA-B*45:06. Described as above.
Assay [11] has as its target HLA-B*83:01. The description is as above.
The target in assay [12] is HLA-C*06:02. The description is as above. The settings on record: source organism: Coxiella burnetii RSA 493.
For assay [13], the target named is HLA-C*14:02. Described as above. To be noted: source organism: Coxiella burnetii RSA 493.
Assay [14] deals with HLA-C*04:01. The assay is described as above. To be noted: source organism: Yersinia pestis CO92.
Assay [15] has as its target HLA-B*73:01. Described as above. To be noted: source organism: Vibrio cholerae V52.
Assay [16] deals with HLA-A*01:01. As to the kind of experiment: IEDB peptide-MHC binding, purified MHC/competitive/fluorescence; ≥ and ≤ were set here for values at or beyond the usual limits of such assays. To be noted: source organism: Homo sapiens.
Assay [17] concerns the target HLA-A*02:01. The description is as above. To be noted: source organism: Homo sapiens.
For assay [18], the target named is HLA-A*03:01. Described as above. To be noted: source organism: Homo sapiens.
In assay [19] the target is HLA-A*11:01. The assay is described as above. To be noted: source organism: Homo sapiens.
Assay [20] concerns the target HLA-A*24:02. Described as above. To be noted: source organism: Homo sapiens.
For assay [21], the target named is HLA-A*25:01. The description is as above. To be noted: source organism: Homo sapiens.
Assay [22] concerns the target HLA-A*29:02. The description is as above. To be noted: source organism: Homo sapiens.
Assay [23] has as its target HLA-A*31:01. The assay is described as above. The settings on record: source organism: Homo sapiens.
Assay [24] has as its target HLA-A*68:02. The assay is described as above. The settings on record: source organism: Homo sapiens.
Assay [25] addresses HLA-B*07:02. Described as above. To be noted: source organism: Homo sapiens.
Assay [26] has as its target HLA-B*08:01. The description is as above. To be noted: source organism: Homo sapiens.
In assay [27] the target is HLA-B*14:02. Described as above. The settings on record: source organism: Homo sapiens.
Assay [28] addresses HLA-B*18:01. The assay is described as above. To be noted: source organism: Homo sapiens.
The target of assay [29] is HLA-B*35:01. The description is as above. To be noted: source organism: Homo sapiens.
Assay [30] deals with HLA-B*37:01. The assay is described as above. To be noted: source organism: Homo sapiens.
For assay [31], the target named is HLA-B*40:02. The description is as above. To be noted: source organism: Homo sapiens.
The target in assay [32] is HLA-B*44:03. The assay is described as above. To be noted: source organism: Homo sapiens.
The target of assay [33] is HLA-B*51:01. Described as above. To be noted: source organism: Homo sapiens.
For assay [34], the target named is HLA-B*53:01. The description is as above. The settings on record: source organism: Homo sapiens.
Assay [35] deals with HLA-B*58:01. Described as above. The settings on record: source organism: Homo sapiens.
Assay [36] concerns the target HLA-C*14:02. As to the kind of experiment: IEDB peptide-MHC binding, purified MHC/direct/fluorescence; filed as Kd, often an IC50 or EC50 that approximates it; ≥ and ≤ were set here for values at or beyond the usual limits of such assays. The settings on record: source organism: Homo sapiens.
Setting [37] is: source organism: Coxiella burnetii RSA 493.
[38] abbreviates: source organism: Yersinia pestis CO92.

With YRATYSMAL, the dissociation constant (Kd) in assay [1], in assay [2], in [3], in [4], in assay [5] and in [6] was ≥ 20 µM in each case. Besides, the Kd in [7] is 0.08 µM; in [8] (setting [37]), ≥ 5 µM; in [9] (setting [37]) it was 0.0007 µM; in assay [10] (setting [37]), ≥ 5 µM; in [11] (setting [37]), ≥ 5 µM; in [12], 0.0061 µM. In assay [13], this sequence registered a Kd of 0.119 µM.

For the sequence FRDRGQHVL, the Kd in assay [8] (setting [38]) was ≥ 5 µM; in [9] (setting [38]), 0.0004 µM; in assay [10] (setting [38]), ≥ 5 µM; in [11] (setting [38]), ≥ 5 µM; in assay [14] it was ≥ 5 µM.

Sequence NRTQGGLRA came in with a Kd in assay [15] of 0.136 µM.

As to SLMASSPTSI, the half-inhibitory concentration (IC50) is ≥ 20 µM in [16]; 0.0208 µM in assay [17]; ≥ 20 µM in [18]; ≥ 20 µM in assay [19]; 1.24 µM in assay [20]; ≥ 20 µM in [21]. In addition, the IC50 in assay [22] was 1.21 µM; in assay [23] it was ≥ 20 µM; in [24] it was 1.01 µM; in assay [25], 2.51 µM; in assay [26], ≥ 20 µM; in [27], ≥ 20 µM. The half-maximal inhibitory concentration (IC50) in [28], in [29], in assay [30], in [31], in assay [32] and in assay [33] was ≥ 20 µM in each case. For the same sequence, the IC50 in [34] and in assay [35] was ≥ 20 µM in each case. Further, in [36], the Kd amounted to 1.12 µM.

For orientation: Kd means a measure of binding affinity in units of concentration. High values mean lower affinity, low ones higher affinity. What is called IC50 is the point on the concentration scale where inhibition reaches its midpoint. A low value points to inhibition by little substance.
